Tests used:
[1] = target: T1, membrane-bound form of Neutrokine-alpha (human, UniProt Q9Y275 1-285); assay: binding to THP-1 cells
T1 construct: also called Neutrokine-alpha on the surface of THP-1 cells; cell surface Neutrokine-alpha

[2] = target: T2, peptide comprising amino acid residues Val-227 to Asn-242 of SEQ ID NO:2 (human); assay: epitope mapping with peptide
T2 peptide: VTLFRCIQNMPETLPN

[3] = target: T3, soluble form of Neutrokine-alpha (amino acids 134 to 285 of SEQ ID NO:2) (human, UniProt Q9Y275 134-285); assay: capture of Neutrokine-alpha from solution
T3 construct: also called rNeutrokine-alpha; BLyS

T1 sequence (Q9Y275 whole entry): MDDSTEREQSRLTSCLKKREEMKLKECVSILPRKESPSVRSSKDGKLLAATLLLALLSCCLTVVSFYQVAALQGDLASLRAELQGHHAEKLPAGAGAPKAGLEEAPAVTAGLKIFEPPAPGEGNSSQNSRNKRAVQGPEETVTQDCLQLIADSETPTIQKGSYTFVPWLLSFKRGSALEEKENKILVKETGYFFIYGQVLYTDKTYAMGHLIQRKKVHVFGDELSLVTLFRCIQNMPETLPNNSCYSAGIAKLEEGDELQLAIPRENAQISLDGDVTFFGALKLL

binding result [1]: binds | binding result [2]: binds | binding result [3]: binds
B1: murine monoclonal antibody 15C10 (antibody, V domains shown)
VH: QVQLQQSGAELARPGASVKMSCRASGYTFTTYTMHWVKQRPGQGLEWIGYIIPRNTYTTFNQKFKNKATLTADKSSNTAYMQLSSLTSEDSAVYYCARHYGGGYWFFDVWGAGTTVTVSS
VL: ELVMTQTPASLAVSLGQRATISCRGSESVDSYGNSFMHWYQQKPGQPPKLLIYRASNLESGIPARFSGSGSRTDFTLTIYPVEADDVATYYCQQSNDDPMYTFGGGTKLEIKR
notes: A chimeric form with human IgG1 and kappa constant regions also exists (PTA-3794); also called hybridoma ATCC PTA-1158

Source: US20110135639A1 (Human Genome Sciences, published 2011)
